Publication PMC4540644 (Journal of molecular biology, 2015)

What was measured:
Assay in all cases: co-sedimentation
[1] = target: T1, Rabbit skeletal muscle α-actin filaments (F-actin) (rabbit, UniProt P68135 1-377)
[2] = target: T1, Rabbit skeletal muscle α-actin …; remark: listed apart in the source
[3] = target: Yeast (Saccharomyces cerevisiae) actin, wild type, filaments (Saccharomyces cerevisiae, UniProt P60010 1-375)

B1: Human metavinculin tail (MVT, residues 879-1134) (domain or fragment)
chain: EEKDEEFPEQKAGEVINQPMMMAARQLHDEARKWSSKPGIPAAEVGIGVVAEADAADAAGFPVPPDMEDDYEPELLLMPSNQPVNQPILAAAQSLHREATKWSSKGNDIIAAAKRMALLMAEMSRLVRGGSGTKRALIQCAKDIAKASDEVTRLAKEVAKQCTDKRIRTNLLQVCERIPTISTQLKILSTVKATMLGRTNISDEESEQATEMLVHNAQNLMQSVKETVREAEAASIKIRTDAGFTLRWVRKTPWYQ
**Q.** With B1 as the binder, how does the “stoichiometry N” value [1] read?
**A.** Its value is 1.

**Q.** And the Kd [2]?
**A.** Its Kd is 560 ± 90 nM.

B2: Human vinculin tail (VT, residues 879-1066) (domain or fragment, UniProt P18206-2 879-1066, looked up)
chain: EEKDEEFPEQKAGEVINQPMMMAARQLHDEARKWSSKGNDIIAAAKRMALLMAEMSRLVRGGSGTKRALIQCAKDIAKASDEVTRLAKEVAKQCTDKRIRTNLLQVCERIPTISTQLKILSTVKATMLGRTNISDEESEQATEMLVHNAQNLMQSVKETVREAEAASIKIRTDAGFTLRWVRKTPWYQ
**Q.** With B2 as the binder, how does the “stoichiometry N” value [1] read?
**A.** Its value is 1.

**Q.** Does B2 bind [3]?
**A.** Result: binds
